Experimental data from the supplement of paper PMC9170038.

Test system: MS2 coat protein
Test: apparent KD of MS2 coat protein; designed switch direction (-1 OFF switch, 1 ON switch): -1; higher = weaker reporter binding
Outline: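 An oligonucleotide input, 200 uM small-molecule ligand, or no input was present during titration of SNAP-549-labelled MS2 coat protein, which was doubled from 0.7 or 1.5 nM to 3 µM. Designed RNA switches had been transcribed on Illumina chips by stalled E. coli RNA polymerase. Apparent KD per design is the median over clusters of curves fitted to normalised cluster fluorescence.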

[1] = Eterna round: R95, input ligand: FMN 200 uM
[2] = Eterna round: R95, input ligand: microRNA oligo, concentration not stated
[3] = Eterna round: R95, input ligand: none
[4] = input ligand: microRNA oligo, concentration not stated

| Sequence | apparent KD of MS2 coat protein (input ligand: FMN 200 uM) [nM] | apparent KD of MS2 coat protein (input ligand: none) [nM] | apparent KD of MS2 coat protein [1] [nM] | apparent KD of MS2 coat protein [2] [nM] | apparent KD of MS2 coat protein [3] [nM] | apparent KD of MS2 coat protein [4] [nM] |
| --- | --- | --- | --- | --- | --- | --- |
| AUAAUGUCAGGAUAUCAGUCGUACAGCCUCGGCUGUACGACUGAGAAGGGACAUGAGGAUCACCCAUGUGGUUA [E4/7-A2] (Eterna round: R97, puzzle: Exclusion 4) | 34.2 | 562 |  |  |  |  |
| CAGUACUGAGGAUAUACAUGAGGAUCACCCAUGUCUUCCAGCUAGGAUACUAGCAAAUGUAGAAGGCAGUACUG [Mat - Exclusion 3 - Eli Mod - D9] (Eterna round: R97, puzzle: Exclusion 3) | 428 | 68.1 |  |  |  |  |
| AAAUAAUAGAUAAAAUAAUACAUGAGGAUCACCCAUGUGGGAUGUUGAGGGUGAUACAGGCUUUUUGCUCGUCUUAU (puzzle: Sensor v3, turn-off variant 1) |  |  | 434 | 155 | 207 |  |
| UUAUAUAGGUAGGAUAUCGAUUUUAAUUAAUUUCGAGAAGGGUCAACAUGAGGAUCACCCAUGUCAGCAUGUAU [LRO-Excl6-05-Rocketman] (Eterna round: R97, puzzle: Exclusion 6) | 45.6 | 51.4 |  |  |  |  |
| UAAUUAAUUAAUUAAUAAUACAUGAGGAUCACCCAUGUAGAUCCUACAUACAAUUUAAGUAGCUCGUCUUAUAAUUA [Stov1/1-A1] (Eterna round: R97, puzzle: Sensor, turn-off variant 1) | 206 | 264 |  |  |  |  |
| UAUAUAUAGUAAGGAUAUGUAUUUCUUUUAUAAACAGAAGGUACUGACAUGAGGAUCACCCAUGUUUUAGUGUGGGCAUGUAGA [JMF's solution 12] (Eterna round: R96, puzzle: Exclusion NG 1) |  |  |  |  |  | 63.1 |
| GAAGAAGAGAGAAUAGAAAACAUGAGGAUCACCCAUGUGAGAAGAUGAGGGUGUAGCAGGCUUUUUGCUCGUCUUAU (puzzle: Sensor v3, turn-off variant 1) |  |  | 32.5 | 119 | 31.2 |  |
| AUUGUGUGAGGAUAUUAAUAGUAAAUGAAUAGAAUUAUGAUUGAGAAGGCACAUGAGGAUCACCCAUGUUCCUU [JR_Ex4_Sub081] (Eterna round: R97, puzzle: Exclusion 4) | 17.8 | 19.6 |  |  |  |  |
| UAAUUAAGUGUGAGGAUAUGCUGGUCCUUGGAUCAGCAGAAGGCACAUGAGGAUCACCCAUGUAAUAUAUAUAU [Mat - Exclusion 4 - JL Mod - D53] (puzzle: Brourd's mod of Exclusion 4) |  |  | 361 | 108 | 104 |  |
| GAUGAGGUAGGAUAUACGAUAAUAUAGGGUAGAUAUAUAACACAUGAGGAUCACCCAUGUAGAAGGACCAGUAC [Mat - Exclusion 2 - Mod of my Tesla design - D69] (puzzle: Exclusion 2) |  |  |  | 36.4 |  |  |
| UUUUUAUAUGAAGGAUAUACUUAACAUGAGGAUCACCCAUGUGGUGUUGUGAGUGAGUGAGUUUAGUAGAAGGUCAGUUCUUUU [JMF's solution 79] (Eterna round: R96, puzzle: Exclusion NG 2) | 414 | 611 |  |  |  | 497 |
| AAGCAACAUGAGGAUCACCCAUGUUAGGAUAUACGCAUGCAUGCAUGCAUGCAUGCAAGUAGAAGGAACCAUGC [Design #15] (Eterna round: R97, puzzle: Exclusion 1) | 32 | 49 |  |  |  |  |
| UAGCGACCAUACAUGAGGAUCACCCAUGUGAAUGCCCACCGCGAGGAUAUCGAGUCCACUCGGGCCGAGAAGGCGCGACCUCAA [Eternabot solution 43] (Eterna round: R96, puzzle: Exclusion NG 3) | 34.8 | 35.5 |  |  |  | 16.1 |
| UGGCUUAGAGGAUAUACAUUGAAUAAGAUUCAUGUAAAACUACAUGAGGAUCACCCAUGUAGAAGGCUAGGCCU [Mat - Exclusion 2 - JL Mod - D73] (Eterna round: R97, puzzle: Exclusion 2) | 32.7 | 17.9 |  |  |  |  |
| AAUAACAAGCCGAUCCUCGACAUGAGGAUCACCCAUGUGCUCGUCUUGUAAAGUACUAUCACGAAAGUGAUAGUACA (Eterna round: R97, puzzle: Sensor, turn-off variant 1) | 174 | 419 |  |  |  |  |
| UGUUGUUCAGGAUAUGAUGUAUAAUACAUGAGGAUCACCCAUGUAGAUCCUGAAUUAGCGUCAGAAGGGAAUGUUG [salish99_ex5_r4_104] (Eterna round: R97, puzzle: Exclusion 5) | 18 | 21.1 |  |  |  |  |
| GGCAUGUGAGGAUAUUAACGGCCUAGACCUGGAACGCCACUUAAGAAGGUACAUGAGGAUCACCCAUGUUGGUG [Eternabot (L2) Solution 19] (Eterna round: R97, puzzle: Exclusion 4) | 711 | 367 |  |  |  |  |
